Assay results as given in publication PMC8537613 (2021).

Molecular target: m102.4
Test: ELISA

B1: NiV sG (domain or fragment)
chain: QNYTRSTDNQAVIKDALQGIQQQIKGLADKIGTEIGPKVSLIDTSSTITIPANIGLLGSKISQSTASINENVNEKCKFTLPPLKIHECNISCPNPLPFREYRPQTEGVSNLVGLPNNICLQKTSNQILKPKLISYTLPVVGQSGTCITDPLLAMDEGYFAYSHLERIGSCSRGVSKQRIIGVGEVLDRGDEVPSLFMTNVWTPPNPNTVYHCSAVYNNEFYYVLCAVSTVGDPILNSTYWSGSLMMTRLAVKPKSNGGGYNQHQLALRSIEKGRYDKVMPYGPSGIKQGDTLYFPAVGFLVRTEFKYNDSNCPITKCQYSKPENCRLSMGIRPNSHYILRSGLLKYNLSDGENPKVVFIEISDQRLSIGSPSKIYDSLGQPVFYQASFSWDTMIKFGDVLTVNPLVVNWRNNTVISRPGQSQCPRFNTCPEICWEGVYNDAFLIDRINWISAGVFLDSNQTAENPVFTVFKDNEILYRAQLASEDTNAQKTITNCFLLKNKIWCISLVEIYDTGDNVIRPKLFAVKIPEQCT
Kd: 0.15 nM
